From PMC2917276 (Acta Crystallographica Section D: Biological Crystallography, 2010)

The binders below were run against T1, Recombinant human IL-13 (human, UniProt P35225) (assay: SEC; Fab mixed with IL-13 at a Fab:IL-13 molar ratio of 1:1.2, 20 min at 277 K; Superdex 200 10/300 in 20 mM HEPES pH 7.5, 0.1 M NaCl; elution compared with the free Fab). Conditions: both partners purified.
T1 construct: interleukin-13, human, recombinant; source: bought: R&D Systems (catalog No. 213-IL/CF), reconstituted in PBS pH 7.4
T1 sequence (P35225 35-143): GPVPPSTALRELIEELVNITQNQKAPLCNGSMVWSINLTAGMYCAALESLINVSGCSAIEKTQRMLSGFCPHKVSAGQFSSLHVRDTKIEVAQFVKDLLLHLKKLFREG

| binding result | Binder |
| --- | --- |
| binds | H2L6 Fab (Fab, V domains shown, humanized version of C836 (CDRs grafted into human variable framework segments), human G1 constant domain; humanized version of C836 (CDRs grafted into human variable framework segments), human kappa constant domain) VH: QVTLKESGPVLVKPTETLTLTCTVSGFSLSTYGMGVGWIRQPPGKALEWLAHIWWDDVKRYNPALKSRLTISKDTSKSQVVLTMTNMDPVDTATYYCARMGSDYDVWFDYWGQGTLVTVSS VL: EIVLTQSPATLSLSPGERATLSCRASKSISKYLAWYQQKPGQAPRLLIYSGSTLQSGIPARFSGSGSGTDFTLTISSLEPEDFAVYYCQQHNEYPYTFGQGTKLEIK |
| binds | M1295 Fab (Fab, V domains shown, human G1 constant domain; human kappa constant domain) VH: QVTLKESGPVLVKPTETLTLTCTVSGFSLSTYGVGVGWIRQPPGKALEWLAHIWWDDVKRYNPALKSRLTISKDTSKSQVVLTMTNMDPVDTATYYCARLGSDYDVWFDYWGQGTLVTVSS VL: EIVLTQSPATLSLSPGERATLSCRASKSISKYLAWYQQKPGQAPRLLIYSGSTLQSGIPARFSGSGSGTDFTLTISSLEPEDFAVYYCQQHDYPYTFGQGTKLEIK |
| binds | C836 Fab (Fab, V domains shown, mouse VH of hybridoma mAb C836 joined to the human G1 constant region (Fab part); mouse VL of hybridoma mAb C836 joined to the human kappa constant region; Chimeric Fab; also called His-tagged C836 Fab) VH: QVTLKESGPGILQPSQTLSLTCSFSGFSLSTYGMGVGWIRQPSGKGLEWLAHIWWDDVKRYNPALKSRLTISKDTSGSQVFLKIASVDTSDTATYYCARMGSDYDVWFDYWGQGTLVTVSA VL: DVQITQSPSYLAASPGETITLNCRASKSISKYLAWYQEKPGKTNKLLIYSGSTLQSGIPSRFSGSGSGTDFTLTISSLEPEDFAMYFCQQHNEYPYTFGGGTKLEIK |
